In this test the target is T1, recombinant human RHAMM (receptor for hyaluronic acid mediated motility), GST tag removed (human, UniProt O75330-3 1-725, limits assumed).
T1 construct: Any residues left by the linker after thrombin cleavage are not described; The BIAcore text says only 'RHAMM' and 'soluble monomeric RHAMM'; also called soluble monomeric RHAMM
T1 sequence (looked up): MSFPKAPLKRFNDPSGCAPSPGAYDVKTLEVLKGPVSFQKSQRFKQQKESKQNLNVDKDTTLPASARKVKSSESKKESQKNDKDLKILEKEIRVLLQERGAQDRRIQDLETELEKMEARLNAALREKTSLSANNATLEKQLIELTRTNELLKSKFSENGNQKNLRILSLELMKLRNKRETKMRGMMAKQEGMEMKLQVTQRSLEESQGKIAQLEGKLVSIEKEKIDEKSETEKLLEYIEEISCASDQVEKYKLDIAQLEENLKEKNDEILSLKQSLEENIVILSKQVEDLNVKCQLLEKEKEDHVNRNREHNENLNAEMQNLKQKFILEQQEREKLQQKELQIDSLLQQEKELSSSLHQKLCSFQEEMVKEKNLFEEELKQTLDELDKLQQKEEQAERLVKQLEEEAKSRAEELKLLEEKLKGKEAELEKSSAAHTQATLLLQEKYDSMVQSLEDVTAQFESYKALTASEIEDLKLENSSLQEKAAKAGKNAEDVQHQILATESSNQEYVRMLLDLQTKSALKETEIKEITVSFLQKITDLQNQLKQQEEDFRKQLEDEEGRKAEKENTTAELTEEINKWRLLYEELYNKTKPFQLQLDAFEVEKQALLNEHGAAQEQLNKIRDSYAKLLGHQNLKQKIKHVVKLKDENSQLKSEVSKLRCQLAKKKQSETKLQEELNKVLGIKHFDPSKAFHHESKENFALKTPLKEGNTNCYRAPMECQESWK
The test can be described thus: BIAcore SPR, mAb captured on rabbit anti-mouse IgG Fc, RHAMM injected. How it is done: The affinity of the purified mAbs was measured in the BIAcore. Using a flow rate of 10 ul/min, the mAb (diluted in HBS buffer) was injected over a rabbit anti-mouse IgG Fc surface, followed by buffer flow and the RU recorded. RHAMM diluted in HBS buffer was then injected for 180s followed by buffer flow for 150s and regeneration of the sensor chip surface with an injection of 0.1 M phosphoric acid. BIAcore software was used for association and dissociation-phase analysis. The murine monoclonal antibodies bound to soluble monomeric RHAMM. The on-rates (kₐₛₛ) and off-rates (kdiss) were calculated.

As a reminder, the Kd is the equilibrium constant for the complex coming apart.

B1: murine monoclonal antibody 16E10 (antibody, V domains shown)
VH: QVQLKESGPGLVAPSQSLSITCTVSGFSLTGYGVNWVRQPPGKGLEWLGMIWVDGGTDYNSALKSRLSISKDNSKSQVFLKMNSLQTDDTARYYCARGGSSLLGFAYWGQGTLVTVSA
VL: DIQMTQTTSSLSASLGDRVTISCRASQDISNYLNWYQQKPDGTVKLLIYYTSRLHSGVPSRFSGSGSGTDYSLTISNLEQEDIATYFCQQGNTLPRTFGGGTKLEIKR
modifications: N-terminus of the heavy chain blocked with pyroglutamic acid
notes: The rest is mouse IgG with a kappa light chain (amplified with mouse IgG CH1 and C kappa primers); also called mAb 16E10; ATCC 16E10
Regarding B1, the Kd was found to be 470 pM.

The record behind these values is patent US20020127227A1 (GlaxoSmithKline, published 2002).
